From paper PMC8097376 (EMBO Reports, 2021)

Key:
[1] = target: T1, SARS-CoV-2 spike receptor-binding domain (RBD) (SARS-CoV-2, UniProt P0DTC2, biotinylated for BLI (site not stated); covalently coupled to MagPlex beads by EDC/sNHS in the bead assays); test: BLI; settings: both partners purified
[2] = target: T1, SARS-CoV-2 spike receptor-binding …; test: bead-based multiplex ACE2 competi; settings: both partners purified

B1: nanobody NM1226 (VHH)
VHH: QVQLVESGGGSVQPGGSLRLSCLGSGSLDYYAIGWFRQAPGKEREGVSCIASSGDRTIYADSVKGRFTISRDYGKNTVYLQMNSLKPEDTAMYYCAALQGSYYYTGFVANEYDYWGQGAPVTVSS
- Kd [1]: 3.66 nM
- IC50 [2]: 0.82 nM
